Consider 104 substances from the supplement of paper PMC12042874.

The nature of the data set: amyloid nucleation score (Sup35N fusion, yeast selection) (log enrichment); library NNK2; higher = more nucleation; inactive = no reads after selection. In short, it runs like this:
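Libraries of peptides of 20 random codons fused to Sup35N were expressed in psi-negative yeast and induced 24 hours with 100 μM copper sulfate. Selection was 7 days at 30°C on medium lacking adenine and uracil, and plasmid inserts were Illumina-sequenced before and after selection. Nucleation score is the DiMSum log enrichment of output over input reads, centred on the mode score of non-aggregating sequences, and sequences with under 100 input reads were left out.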

± gives the uncertainty stated by the source.

For the substance RCREWYMR, the amyloid nucleation score was -0.568 ± 0.63.

CTRVLW returned an amyloid nucleation score of -0.201 ± 0.32.

The substance HPYYDQ gave an amyloid nucleation score of 0.538 ± 0.45.

ASVENGSALIIRESDMSGGN registered an amyloid nucleation score of 0.556 ± 0.43.

For the substance EMSGY, the amyloid nucleation score result is “inactive”.

Take DMHCFSEGRHGGLTCAGCLR: the amyloid nucleation score stood at 1.1 ± 0.19.

YFVFHDQKSTNLGWIFVFCR returned an amyloid nucleation score of 0.108 ± 0.65.

The substance DYLCGNFKCYCVFTNDGNRF had an amyloid nucleation score of 2.42 ± 0.21.

Substance LILGLRGPLPCMLHNSGTYL gave an amyloid nucleation score of 0.19 ± 1.1.

Regarding LYGGCRKWFTRTCFSFHMYR, the amyloid nucleation score is 0.562 ± 0.81.

In turn, NWIPGVVEKRSRLSGFWSWL yielded an amyloid nucleation score of 0.657 ± 0.23.

MAAVSETHPGAEGSNRVVSE had an amyloid nucleation score of 3.06 ± 0.07.

AEVCEVRTFVPYSCLFYSST came in with an amyloid nucleation score of 5.22 ± 0.06.

Regarding SFDWWASHRTIVY, the amyloid nucleation score was -0.217 ± 0.42.

In turn, FIFLNNIHTYIYYVR gave an amyloid nucleation score of 6.292 ± 0.034.

The substance ILFGIPN showed an amyloid nucleation score of -0.314 ± 0.24.

With GYKDANQNM, the amyloid nucleation score entry is “inactive”.

Turning to TLPVPPGCRFVEITV, the amyloid nucleation score was 0.293 ± 0.53.

For the substance GTRYLRVSFNCAVRV, the amyloid nucleation score was determined as 1.22 ± 0.69.

TVLLGHLEGRVYWEPMIQQV returned an amyloid nucleation score of 0.36 ± 0.64.

The substance LYVFPCHILDDRCFLCGGWF showed an amyloid nucleation score of -0.353 ± 0.38.

For the substance HPFVSDCVMDLKFTVVTGLV, the amyloid nucleation score was 0.086 ± 0.3.

As to CQWSVGRLRSLRAESVVQFD, the amyloid nucleation score turned out to be 0.104 ± 0.35.

Take EVERGIN: the amyloid nucleation score is 0.62 ± 0.56.

FGLWQVPSGWNTADRA yielded an amyloid nucleation score of 0.743 ± 0.58.

WEASSFKVSGLSGSHHPSKG gave an amyloid nucleation score of 2.3 ± 0.13.

As for LLSPYMLRLMV, the amyloid nucleation score is -0.299 ± 0.79.

Take FQVSCVHQVPRAAGVADGAV: the amyloid nucleation score is 0.375 ± 0.21.

For LWLLMYGSW, the amyloid nucleation score stood at 2.4 ± 0.1.

As for VTVNE, the amyloid nucleation score amounted to 0.711 ± 0.21.

VKPVFWKLGWRDYLYSMRQF displayed an amyloid nucleation score of -1.11 ± 0.3.

The substance YYWGAGTQHGYLFTFVGGND showed an amyloid nucleation score of -0.326 ± 1.

As to WSNFVIMNVPANGAWNFRIR, the amyloid nucleation score is -1.13 ± 0.76.

The substance TAKSVVA returned an amyloid nucleation score of -0.703 ± 0.29.

The substance CIYMSRSRRKCGCSLGTRYV came in with an amyloid nucleation score of -0.393 ± 1.

MIISTVMSGMNANSLVVWAY had an amyloid nucleation score of 0.375 ± 0.21.

In turn, HKGFEPVGRGYALCSTWLVV came in with an amyloid nucleation score of 6.37 ± 0.074.

For LGVMRIVHVGLWSAR, the amyloid nucleation score is -0.249 ± 0.55.

Substance LAGGCRRTPAVINRLFVKTA showed an amyloid nucleation score of 0.374 ± 0.4.

Consider SYTCSS, for which the amyloid nucleation score is -0.211 ± 0.48.

Substance RLIGLVSRVEHVYIAVKRWE returned an amyloid nucleation score of 0.543 ± 0.34.

Consider LIICSAPCCVTTWQQLRTMQ, for which the amyloid nucleation score came out at 4.15 ± 0.047.

Substance DISELDVCFL registered an amyloid nucleation score of -0.287 ± 0.33.

For the substance CSYSFDLTANICPISLNVVC, the amyloid nucleation score stood at 5.001 ± 0.043.

With WCRWMGMH, the amyloid nucleation score came to 0.543 ± 0.47.

Substance LTLCSFRCTKLMR gave an amyloid nucleation score of 1.11 ± 0.25.

Consider LVSFRKPILTSQ, for which the amyloid nucleation score was determined as 0.164 ± 0.8.

The substance QFARGPSGSIMEQVLIDGDV yielded an amyloid nucleation score of 0.277 ± 0.64.

Consider IIGINVWM, for which the amyloid nucleation score stood at 5.443 ± 0.05.

Consider CPLMNLYRNVFYVWKLNFLP, for which the amyloid nucleation score entry is “inactive”.

The substance SLLIYQMYE gave an amyloid nucleation score of -0.263 ± 0.76.

YAPGVLLSSMNDMAEYKGGI displayed an amyloid nucleation score of -0.14 ± 0.28.

In the case of FYVRGGCI, the amyloid nucleation score is -2.22 ± 0.76.

In turn, PFVTFATVFLLKPMVFAKQC yielded an amyloid nucleation score of 1.23 ± 0.38.

With GIYGSGIAFRRSGGWWEVCS, the amyloid nucleation score result was “inactive”.

On to SLCPRYYGF, for which the amyloid nucleation score entry is “inactive”.

Turning to SAWVTNIFDNKLCVAVTEFR, the amyloid nucleation score was 4.04 ± 0.06.

Substance MSVLSMVFSGFDPMERFGEL displayed an amyloid nucleation score of 0.294 ± 0.8.

In turn, MSSINTRPRNDA came in with an amyloid nucleation score of -0.645 ± 0.37.

Regarding PIFNMSTPNFLSSPESRLLV, the amyloid nucleation score result was “inactive”.

LRYNADMVGCKFWWIPVWSL showed an amyloid nucleation score of -0.843 ± 0.42.

LSGSY: the amyloid nucleation score is -0.305 ± 1.1.

Regarding NNQYINWMRKCG, the amyloid nucleation score was -0.671 ± 0.41.

On to LYIET, for which the amyloid nucleation score was -1.28 ± 0.63.

In turn, CILLTGPSYSLKLAYSDCLS came in with an amyloid nucleation score of -1.15 ± 0.43.

In the case of FYSFGGNGDYSPKSGHWS, the amyloid nucleation score result was “inactive”.

TGCMSFSWPWTLLVSPIQLS: the amyloid nucleation score was -0.651 ± 0.48.

The substance VMGCFSIGGLGMGVPMVYSR yielded an amyloid nucleation score of 0.651 ± 0.44.

In turn, FIPYNSW gave an amyloid nucleation score of 0.689 ± 0.16.

As for RSAILEEDFDCHMYWGL, the amyloid nucleation score turned out to be 0.916 ± 0.31.

Substance LVWIEMVSF displayed an amyloid nucleation score of -0.544 ± 0.78.

In turn, MVFRNNYSEVTTRLAGNGRR gave an amyloid nucleation score of -0.074 ± 1.1.

On to ENLKCEPLGRVRLKDHVYVV, for which the amyloid nucleation score turned out to be 0.228 ± 0.27.

Regarding TACVSWGPSYWV, the amyloid nucleation score result is “inactive”.

As to SLQFVGYYFPFNRVCARSGA, the amyloid nucleation score is -0.913 ± 0.45.

In turn, GVQTFVMTPTCKRNWLQDGR gave an amyloid nucleation score of 0.233 ± 0.27.

With ILWDTIREVHVHADMDMAPN, the amyloid nucleation score is -0.782 ± 0.61.

The substance MLSLVMRVGFNCFIT came in with an amyloid nucleation score of 0.208 ± 1.1.

In turn, FKTVCVGKCLVFMVTDAELI showed an amyloid nucleation score of -1.49 ± 0.76.

CCSFNLISLYSKVRARSELP had an amyloid nucleation score of 8.765 ± 0.029.

Substance HDINRMG registered an amyloid nucleation score of 0.391 ± 0.54.

Consider VDYLRYLIWFNRS, for which the amyloid nucleation score was 0.058 ± 0.79.

PSVDCSEIKPIWNLVKYFLI had an amyloid nucleation score of -0.571 ± 0.26.

With LVVWPMNQPLPLSNRPTPKR, the amyloid nucleation score turned out to be 1.83 ± 0.3.

CLQFLSRYRVWPSHSFWGEY came in with an amyloid nucleation score of 3.68 ± 0.07.

VFILSEYVTNAVK yielded an amyloid nucleation score of -0.165 ± 0.54.

TRVAYRI had an amyloid nucleation score of 0.219 ± 1.

RRFVCRCFRYTHECVLGCFG yielded an amyloid nucleation score of 1.52 ± 0.33.

IASRLTPHSLYFLINVGRGR displayed an amyloid nucleation score of 2.88 ± 0.14.

IGINLCCGDYFIHVLSASCS displayed an amyloid nucleation score of 5.2 ± 0.058.

Consider SGFFAVGILITTLPLRGNER, for which the amyloid nucleation score worked out at 0.22 ± 0.45.

On to SVVLFEYGWICEIIEGSDII, for which the amyloid nucleation score result was “inactive”.

With VISKVSLDVCRCIRFLHYDS, the amyloid nucleation score worked out at 7.692 ± 0.061.

Consider RLRMSMIISLINLRLCGLML, for which the amyloid nucleation score was 1.03 ± 0.53.

Take DQCELVSGVWLSIRSADLPY: the amyloid nucleation score amounted to 0.176 ± 0.35.

In the case of HSPNCYKMSGRFLCD, the amyloid nucleation score is -1.77 ± 0.54.

As to GFTLEAKDWSTG, the amyloid nucleation score was found to be 0.778 ± 0.43.

GSGNPGMSIFVKIY yielded an amyloid nucleation score of -1.16 ± 0.62.

With VRDFCRWASDVRCSNGWRVA, the amyloid nucleation score was found to be 0.384 ± 0.65.

Turning to DRFRDVIICFFKCTCNRITQ, the amyloid nucleation score came to 4.949 ± 0.034.

Regarding YLRVKMPVIRVIVR, the amyloid nucleation score result is “inactive”.

Consider VILGVGKTTNFYSSFFIRVW, for which the amyloid nucleation score result was “inactive”.

As for SCRNCSQSVSLGGSSKPRQV, the amyloid nucleation score came out at 0.455 ± 0.4.

DKRIGRVCHSLKIVWCTIML showed an amyloid nucleation score of -0.089 ± 0.41.
